Laboratory results reported in patent US9187762B2, “Compositions and methods comprising sequences having hydroxyphenylpyruvate dioxygenase (HPPD) activity” (PIONEER HI-BRED INTERNATIONAL, INC., priority 2010, dated 2015).

Tests used:
T0 soybean plants = experiment: Herbicide spray test of transgenic T0 HPPD soy plants using mesotrione, visual injury; assay type: in vivo; settings: mesotrione 210 g ai/ha, eight days after treatment
Text: (1987) Nature 327:70-73, U.S. Pat. No. 4,945,050) using a DuPont Biolistic PDS1000/He instrument. A selectable marker gene used to facilitate soybean transformation was a chimeric gene composed of the 35S promoter from Cauliflower Mosaic Virus (Odell et al. (1985) Nature 313:810-812), the hygromycin phosphotransferase gene from plasmid pJR225 (from E coli; Gritz et al. (1983) Gene 25:179-188) and the 3' region of the nopaline synthase gene from the T-DNA of the Ti plasmid of Agrobacterium tumefaciens. Another selectable marker used to facilitate soybean transformation was a chimeric gene composed of the S-adenosylmethionine synthase (SAMS) promoter (U.S. Pat. […] Pat. […] The selection agent used during the transformation process was either hygromycin or chlorsulfuron depending on the marker gene present. […] Pat. […] (1995) Genetics 139 (2), 921-939; Genbank L05363). In specific constructs, the SCP1 promoter of U.S. Pat. No. 6,072,050 was employed. Bombardments were carried out with linear DNA fragments purified away from any bacterial vector DNA. […] Bombarded soybean embryogenic suspension tissue was cultured for one week in the absence of selection agent, then placed in liquid selection medium for 6 weeks. […] Putative transgenic suspension culture tissue was maintained in selection medium for 3 weeks to obtain enough tissue for plant regeneration. Suspension tissue was matured for 4 weeks using standard procedures; matured somatic embryos were desiccated for 4-7 days and then placed on germination induction medium for 2-4 weeks. Germinated plantlets were transferred to soil in cell pack trays for 3 weeks for acclimatization. Plantlets were potted to 10-inch pots in the greenhouse for evaluation of herbicide resistance. […] Some T0 plants were not sprayed with herbicide and were all advanced to the next generation for testing.

soybean HPPD = experiment: HPPD activity, coupled assay with HGD; substrate saturation kinetics (KM, kcat); assay type: biochemical; settings: substrate HPP; E. coli-expressed enzyme
Text: (§1) HPPD catalyzes the conversion of 4-hydroxyphenylpyruvate (HPP) to homogentisate. See, FIG. 1. […] However, the product of the ensuing reaction in tyrosine metabolism, maleylacetoacetate, absorbs strongly at 320 nm. Furthermore, the enzyme catalyzing that reaction is also a dioxygenase having similar mechanism and buffer requirements as HPPD, making homogentisate dioxygenase (HGD) an ideal partner in a coupled assay, as shown.
(§2) The HDG gene from Pseudomonas aeruginosa (Amaya (2004) Arch Biochem Biophys 421, 135-142) was cloned into pVER7062 and electroporated into E. coli strain BL21(DE3). The enzyme was produced by methods similar to those described for HPPD. The purified enzyme has a KM for homogentisate of 23 uM and a kcat of 100/sec, properties highly suited for instantly converting the homogentisate produced by HPPD to maleylacetoacetate.
(§3) HPPD activity was measured by placing an aliquot (e.g., 6 ul) of the substrate HPP at 50-fold the desired final concentration into the wells of a low UV-absorbing assay plate. Reactions were started by adding a mixture (e.g., 294 ul) containing 25 mM Hepes, pH 7, 2 mM ascorbate, 10 uM FeSO4, 1 to 100 uM HPP, 50 nM HGD and 5 to 240 nM HPPD. Absorbance at 320 nm was monitored continuously in a plate-reading spectrophotometer (Spectramax, Molecular Devices).
(§4) The catalytic performance of wild-type HPPD and variants generated by shuffling was assessed by determining the substrate saturation parameters. The Michaelis-Menten kinetics protocol of the Spectramax software was customized for HPP concentrations ranging from 3.33 uM to 100 uM, or up to 1 mM if required. Reaction rates were measured as described above for each concentration of HPP. The software returns values of KM and Vmax using the Lineweaver-Burke transformation of the Michaelis-Menten equation.
The amino acid substitutions identified during the shuffling and mutagenesis of the maize HPPD gene can be made at analogous positions in other HPPD proteins to improve their insensitivity toward HPPD-inhibiting herbicides. The sequences of native and improved maize HPPD were aligned with those of sorghum (Genbank accession number XP002453359) and soybean (Genbank accession number ABQ96868), and the motif substitutions were designed accordingly, as shown in FIG. 14. The genes designed for improvement were synthesized commercially, inserted into vector pVER7062 and expressed, purified and evaluated as in Example 1.

maize HPPD [1] = experiment: ON rate ratio, OFF rate ratio and insensitivity parameter with herbicidal HPPD inhibitors; assay type: biochemical; settings: for ON rate ratio: mesotrione 4 uM, 100 uM HPP, 70 to 90 second interval
Text: To devise a parameter for detecting changes in inhibitor binding affinity, KD, one can utilize the relationship between KD and the rates of binding and release of inhibitor to and from the enzyme. [formula] Higher KD (reduced affinity or increased insensitivity) can be attained with a numerically smaller ON rate, a larger OFF rate or both. […] The ratio of the reaction rate with inhibitor to that without inhibitor during the 70 to 90 second interval of the reaction was termed the “ON rate ratio”. […] Incubations with the same concentrations of enzyme but no mesotrione were done in parallel. After 1 hr at room temperature, 5 to 10 ul of the enzyme-inhibitor complex was dispensed into the wells of the assay plate. Reactions were started with the addition of 290 to 295 ul of 25 mM Hepes, pH 7, 2 mM ascorbate, 10 uM FeSO4, 100 uM HPP and 50 nM HGD. The reactions were monitored at 320 nm for 12 min. Reaction velocity accelerates as inhibitor is released from the enzyme until a steady state is reached, during which the reaction velocity is constant. The ratio of the steady state rate in mixtures containing mesotrione (or other herbicidal inhibitor) to the initial velocity of mixtures lacking inhibitor is termed the “OFF rate ratio”. Another parameter to record is the time span required for the reactions with inhibitor to reach the steady state. […] It is not certain that the steady state attained in the OFF rate reactions actually represents an equilibrium where OFF rates are now equal to ON rates. Because substrate and inhibitors bind in the same site, the high concentration of substrate present may competitively trap the inhibitor and prevent it from binding again. To be sure that improvement in ON rates is being taken into account, the ON and OFF rate ratios were multiplied together and the product is termed the “insensitivity parameter”. […] The variants in Table 9 were grouped according to the parameter in which they are improved compared to wild type. The sequence positions are numbered according to the wild-type maize amino acid sequence of SEQ ID 1. Some substitutions are effective in multiple contexts, as discussed in the next section.

maize HPPD [2] = experiment: HPPD activity, coupled assay with HGD at 320 nm; substrate saturation kinetics (KM, kcat); assay type: biochemical
Text: as §1, §2, §3, §4

[3] = Elite soybean control, DNA none
[4] = substrate HPP, E. coli-expressed enzyme

CS(=O)(=O)c1ccc(C(=O)C2C(=O)CCCC2=O)c([N+](=O)[O-])c1 [mesotrione]
Mean Soybean Response (% Injury) (T0 soybean plants; [3]): 88%
Soybean % Injury Response Range (T0 soybean plants; [3]): 80-95%
Mean Soybean Response (% Injury) (T0 soybean plants; Jack soybean control, DNA none): 87%
Soybean % Injury Response Range (T0 soybean plants; Jack soybean control, DNA none): 75-95%

B1: Soy wt: wild-type soybean HPPD protein, SEQ ID NO: 2, expressed in E. coli (protein)
chain: MAIPMCNEIQAQAQAQAQAQPGFKLVGFKNFVRTNPKSDRFQVNRFHHIEFWCTDATNASRRFSWGLGMPIVAKSDLSTGNQIHASYLLRSGDLSFLFSAPYSPSLSAGSSAASSASIPSFDAATCLAFAAKHGFGVRAIALEVADAEAAFSASVAKGAEPASPPVLVDDRTGFAEVRLYGDVVLRYVSYKDAAPQAPHADPSRWFLPGFEAAASSSSFPELDYGIRRLDHAVGNVPELAPAVRYLKGFSGFHEFAEFTAEDVGTSESGLNSVVLANNSETVLLPLNEPVYGTKRKSQIETYLEHNEGAGVQHLALVTHDIFTTLREMRKRSFLGGFEFMPSPPPTYYANLHNRAADVLTVDQIKQCEELGILVDRDDQGTLLQIFTKPVGDRPTIFIEIIQRIGCMVEDEEGKVYQKGACGGFGKGNFSELFKSIEEYEKTLEAKRTA
modifications: Glycine max
Km (soybean HPPD): 3 µM
kcat (soybean HPPD): 1.67 s⁻¹

B2: Maize wt: synthetic maize wild-type HPPD protein, SEQ ID NO: 1, expressed in E. coli (protein)
chain: MGPTPTAAAAGAAVAAASAAEQAAFRLVGHRNFVRFNPRSDRFHTLAFHHVELWCADAASAAGRFSFGLGAPLAARSDLSTGNSAHASLLLRSGSLSFLFTAPYAHGADAATAALPSFSAAAARRFAADHGLAVRAVALRVADAEDAFRASVAAGARPAFGPVDLGRGFRLAEVELYGDVVLRYVSYPDGAAGEPFLPGFEGVASPGAADYGLSRFDHIVGNVPELAPAAAYFAGFTGFHEFAEFTTEDVGTAESGLNSMVLANNSENVLLPLNEPVHGTKRRSQIQTFLDHHGGPGVQHMALASDDVLRTLREMQARSAMGGFEFMAPPTSDYYDGVRRRAGDVLTEAQIKECQELGVLVDRDDQGVLLQIFTKPVGDRPTLFLEIIQRIGCMEKDEKGQEYQKGGCGGFGKGNFSQLFKSIEDYEKSLEAKQAAAAAAAQGS
modifications: Zea mays
Insensitivity parameter (ON rate ratio × OFF rate ratio) relative to that of maize wild-type HPPD (maize HPPD [1]; Isoxaflutole (diketonitrile)): 1.0
Insensitivity parameter (ON rate ratio × OFF rate ratio) relative to that of maize wild-type HPPD (maize HPPD [1]; Sulcotrione): 1.0
Insensitivity parameter (ON rate ratio × OFF rate ratio) relative to that of maize wild-type HPPD (maize HPPD [1]; Topramezone): 1.0
Triple product (ON rate ratio × OFF rate ratio × kcat), relative to that of maize wild-type HPPD (maize HPPD [1]; inhibitor Isoxaflutole (diketonitrile)): 1.0
Triple product (ON rate ratio × OFF rate ratio × kcat), relative to that of maize wild-type HPPD (maize HPPD [1]; inhibitor Mesotrione): 1.0
Triple product (ON rate ratio × OFF rate ratio × kcat), relative to that of maize wild-type HPPD (maize HPPD [1]; inhibitor Sulcotrione): 1.0
Triple product (ON rate ratio × OFF rate ratio × kcat), relative to that of maize wild-type HPPD (maize HPPD [1]; inhibitor Tembotrione): 1.0
Triple product (ON rate ratio × OFF rate ratio × kcat), relative to that of maize wild-type HPPD (maize HPPD [1]; inhibitor Topramezone): 1.0
Insensitivity parameter (ON rate ratio × OFF rate ratio) relative to that of maize wild-type HPPD (maize HPPD [1]; mesotrione): 1.0
ON × OFF × kcat (maize HPPD [1]; mesotrione): 9.88
Vmax MT (maximum reaction rate attained with mesotrione in the determination of OFF rate ratio) (maize HPPD [1]; mesotrione): 52 min⁻¹
insensitivity parameter (ON rate ratio × OFF rate ratio) (maize HPPD [1]; mesotrione): 0.049
ON rate ratio (maize HPPD [1]): 0.2
ON rate ratio (maize HPPD [1]; listed as WT): 0.19
OFF rate ratio (maize HPPD [1]; mesotrione, pre-formed enzyme-inhibitor complex): 0.26
time span to attain steady state in OFF rate reaction (maize HPPD [1]; release of mesotrione from pre-formed complex, enzyme 240 nM): 280 s
Insensitivity parameter (ON rate ratio × OFF rate ratio) relative to that of maize wild-type HPPD (maize HPPD [1]; tembotrione): 1.0
kcat (maize HPPD [2]; N-terminal truncated variants of maize wild-type HPPD, single measurement): 2.77 s⁻¹
Km (maize HPPD [2]; [4]): 5.2 µM
kcat (maize HPPD [2]; [4]): 3.45 s⁻¹
kcat (maize HPPD [2]; substrate HPP, E. coli-expressed enzyme, listed as wild type): about 220 min^−1
tolerance to mesotrione in T0 soybean plants (T0 soybean plants): moderate tolerance

B3: D0223961: shuffled maize HPPD variant used for chloroplast transformation (protein)
chain: MGPTPTATAAGAAVAAASAAEQAAFRLVGHRNFVRFNPRSDRFHTLAFHHVELWCADAASAAGRFSFALGAPLAARSDLSTGNSAHASLLLRSGSLSFLFTAPYAHGADAATAALPSFSAAAARRFAADHGLAVRAVALRVADAEDAFRASVAAGARPAFGPVDLGRGFRLAEVELYGDVVLRYVSYPDGAAGEPFLPGFEGVASPGAADYGLSRFDHIVGNVPELAPAAAYFAGFTGFHEFAEFTTEDVGTAESGLNSMALANNSENVLLPLNEPVHGTKRRSQIQTFLDHHGGPGVQHIALASDDVLRTLREMQARSAMGGFEFLPPPPSDYYDGVRRCAGDVLTEAQINECQELGVMVDRDDQGVLLQIFTKPVGDRPTFFLEIIQRIGCMEKDEKGQEYQKGGCGGFGKKNFGQLFKSIEDYEKSLEAKQAAAAATAQGS
modifications: HPPD variant
notes: shuffled maize HPPD variant used for chloroplast transformation
kcat (maize HPPD [2]; variants truncated to ala20 vs full length): 1.77 ± 0.207 s⁻¹
Soybean % Injury Response Range (T0 soybean plants; T0 soybean plants expressing the HPPD gene variant (per DNA construct)): 0-80%
Mean Soybean Response (% Injury) (T0 soybean plants; T0 soybean plants expressing the HPPD gene variant (per DNA construct), 0=no effect, 100=dead plant): 26%
